Measurements taken from publication PMC4655838 (2015).
Square brackets hold non-standard residues; d marks the D form. Ends that are not written are not given here. pT = C[C@@H](OP(=O)(O)O)[C@H](N)C(=O)O; pS = N[C@@H](COP(=O)(O)O)C(=O)O

T1: APLF FHA domain (residues 1-106) (UniProt Q8IW19 1-106)
T1 chain: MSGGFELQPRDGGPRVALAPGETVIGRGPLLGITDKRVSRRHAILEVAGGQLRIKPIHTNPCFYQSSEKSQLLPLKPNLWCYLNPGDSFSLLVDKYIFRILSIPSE

B1: XRCC4 229-237 peptide phosphorylated on Ser232 and Thr233 (peptide)
peptide: YDESTDEES
HELM: PEPTIDE1{Y.D.E.[O=C([C@H](COP(=O)(O)O)N[*:1])[*:2]].[C[C@@H](OP(=O)(O)O)[C@H](N[*:1])C(=O)[*:2]].D.E.E.S.[am]}$$$$V2.0; N-terminus assumed
SMILES: C[C@@H](OP(=O)(O)O)[C@H](NC(=O)[C@H](COP(=O)(O)O)NC(=O)[C@H](CCC(=O)O)NC(=O)[C@H](CC(=O)O)NC(=O)[C@@H](N)Cc1ccc(O)cc1)C(=O)N[C@@H](CC(=O)O)C(=O)N[C@@H](CCC(=O)O)C(=O)N[C@@H](CCC(=O)O)C(=O)N[C@@H](CO)C(N)=O
B2: XRCC4 229-237 peptide phosphorylated on Thr233 (peptide)
peptide: YDESTDEES
HELM: PEPTIDE1{Y.D.E.S.[C[C@@H](OP(=O)(O)O)[C@H](N[*:1])C(=O)[*:2]].D.E.E.S.[am]}$$$$V2.0; N-terminus assumed
SMILES: C[C@@H](OP(=O)(O)O)[C@H](NC(=O)[C@H](CO)NC(=O)[C@H](CCC(=O)O)NC(=O)[C@H](CC(=O)O)NC(=O)[C@@H](N)Cc1ccc(O)cc1)C(=O)N[C@@H](CC(=O)O)C(=O)N[C@@H](CCC(=O)O)C(=O)N[C@@H](CCC(=O)O)C(=O)N[C@@H](CO)C(N)=O
B3: XRCC1 515-529 peptide phosphorylated on Ser518 and Thr519 (peptide)
peptide: YAGSTDENTDSEEHQ
HELM: PEPTIDE1{Y.A.G.[O=C([C@H](COP(=O)(O)O)N[*:1])[*:2]].[C[C@@H](OP(=O)(O)O)[C@H](N[*:1])C(=O)[*:2]].D.E.N.T.D.S.E.E.H.Q.[am]}$$$$V2.0; N-terminus assumed
SMILES: C[C@H](NC(=O)[C@@H](N)Cc1ccc(O)cc1)C(=O)NCC(=O)N[C@@H](COP(=O)(O)O)C(=O)N[C@H](C(=O)N[C@@H](CC(=O)O)C(=O)N[C@@H](CCC(=O)O)C(=O)N[C@@H](CC(N)=O)C(=O)N[C@H](C(=O)N[C@@H](CC(=O)O)C(=O)N[C@@H](CO)C(=O)N[C@@H](CCC(=O)O)C(=O)N[C@@H](CCC(=O)O)C(=O)N[C@@H](Cc1c[nH]cn1)C(=O)N[C@@H](CCC(N)=O)C(N)=O)[C@@H](C)O)[C@@H](C)OP(=O)(O)O
B4: XRCC4 229-237 peptide phosphorylated on Ser232, Thr233 and Ser237 (peptide)
peptide: YDE[pS][pT]DEE[pS]-NH2
modifications: N-terminus assumed
SMILES: C[C@@H](OP(=O)(O)O)[C@H](NC(=O)[C@H](COP(=O)(O)O)NC(=O)[C@H](CCC(=O)O)NC(=O)[C@H](CC(=O)O)NC(=O)[C@@H](N)Cc1ccc(O)cc1)C(=O)N[C@@H](CC(=O)O)C(=O)N[C@@H](CCC(=O)O)C(=O)N[C@@H](CCC(=O)O)C(=O)N[C@@H](COP(=O)(O)O)C(N)=O
B5: XRCC1 515-529 peptide phosphorylated on Thr519 (peptide)
peptide: YAGSTDENTDSEEHQ
HELM: PEPTIDE1{Y.A.G.S.[C[C@@H](OP(=O)(O)O)[C@H](N[*:1])C(=O)[*:2]].D.E.N.T.D.S.E.E.H.Q.[am]}$$$$V2.0; N-terminus assumed
SMILES: C[C@H](NC(=O)[C@@H](N)Cc1ccc(O)cc1)C(=O)NCC(=O)N[C@@H](CO)C(=O)N[C@H](C(=O)N[C@@H](CC(=O)O)C(=O)N[C@@H](CCC(=O)O)C(=O)N[C@@H](CC(N)=O)C(=O)N[C@H](C(=O)N[C@@H](CC(=O)O)C(=O)N[C@@H](CO)C(=O)N[C@@H](CCC(=O)O)C(=O)N[C@@H](CCC(=O)O)C(=O)N[C@@H](Cc1c[nH]cn1)C(=O)N[C@@H](CCC(N)=O)C(N)=O)[C@@H](C)O)[C@@H](C)OP(=O)(O)O
B6: XRCC1 515-529 peptide phosphorylated on Ser518, Thr519 and Thr523 (peptide)
peptide: YAG[pS][pT]DEN[pT]DSEEHQ-NH2
modifications: N-terminus assumed
SMILES: C[C@H](NC(=O)[C@@H](N)Cc1ccc(O)cc1)C(=O)NCC(=O)N[C@@H](COP(=O)(O)O)C(=O)N[C@H](C(=O)N[C@@H](CC(=O)O)C(=O)N[C@@H](CCC(=O)O)C(=O)N[C@@H](CC(N)=O)C(=O)N[C@H](C(=O)N[C@@H](CC(=O)O)C(=O)N[C@@H](CO)C(=O)N[C@@H](CCC(=O)O)C(=O)N[C@@H](CCC(=O)O)C(=O)N[C@@H](Cc1c[nH]cn1)C(=O)N[C@@H](CCC(N)=O)C(N)=O)[C@@H](C)OP(=O)(O)O)[C@@H](C)OP(=O)(O)O
B7: YAGSTDENpTDpSEEHQ (peptide)
chain: YAGSTDENTDSEEHQ
HELM: PEPTIDE1{Y.A.G.S.T.D.E.N.[C[C@@H](OP(=O)(O)O)[C@H](N[*:1])C(=O)[*:2]].D.[O=C([C@H](COP(=O)(O)O)N[*:1])[*:2]].E.E.H.Q.[am]}$$$$V2.0; N-terminus assumed
SMILES: C[C@H](NC(=O)[C@@H](N)Cc1ccc(O)cc1)C(=O)NCC(=O)N[C@@H](CO)C(=O)N[C@H](C(=O)N[C@@H](CC(=O)O)C(=O)N[C@@H](CCC(=O)O)C(=O)N[C@@H](CC(N)=O)C(=O)N[C@H](C(=O)N[C@@H](CC(=O)O)C(=O)N[C@@H](COP(=O)(O)O)C(=O)N[C@@H](CCC(=O)O)C(=O)N[C@@H](CCC(=O)O)C(=O)N[C@@H](Cc1c[nH]cn1)C(=O)N[C@@H](CCC(N)=O)C(N)=O)[C@@H](C)OP(=O)(O)O)[C@@H](C)O
B8: XRCC1 515-529 peptide phosphorylated on Ser518, Thr519, Thr523 and Ser525 (peptide)
peptide: YAG[pS][pT]DEN[pT]D[pS]EEHQ-NH2
modifications: N-terminus assumed
SMILES: C[C@H](NC(=O)[C@@H](N)Cc1ccc(O)cc1)C(=O)NCC(=O)N[C@@H](COP(=O)(O)O)C(=O)N[C@H](C(=O)N[C@@H](CC(=O)O)C(=O)N[C@@H](CCC(=O)O)C(=O)N[C@@H](CC(N)=O)C(=O)N[C@H](C(=O)N[C@@H](CC(=O)O)C(=O)N[C@@H](COP(=O)(O)O)C(=O)N[C@@H](CCC(=O)O)C(=O)N[C@@H](CCC(=O)O)C(=O)N[C@@H](Cc1c[nH]cn1)C(=O)N[C@@H](CCC(N)=O)C(N)=O)[C@@H](C)OP(=O)(O)O)[C@@H](C)OP(=O)(O)O
B9: XRCC1 515-529 peptide phosphorylated solely on Thr523 (peptide)
peptide: YAGSTDENTDSEEHQ
HELM: PEPTIDE1{Y.A.G.S.T.D.E.N.[C[C@@H](OP(=O)(O)O)[C@H](N[*:1])C(=O)[*:2]].D.S.E.E.H.Q.[am]}$$$$V2.0; N-terminus assumed
SMILES: C[C@H](NC(=O)[C@@H](N)Cc1ccc(O)cc1)C(=O)NCC(=O)N[C@@H](CO)C(=O)N[C@H](C(=O)N[C@@H](CC(=O)O)C(=O)N[C@@H](CCC(=O)O)C(=O)N[C@@H](CC(N)=O)C(=O)N[C@H](C(=O)N[C@@H](CC(=O)O)C(=O)N[C@@H](CO)C(=O)N[C@@H](CCC(=O)O)C(=O)N[C@@H](CCC(=O)O)C(=O)N[C@@H](Cc1c[nH]cn1)C(=O)N[C@@H](CCC(N)=O)C(N)=O)[C@@H](C)OP(=O)(O)O)[C@@H](C)O

biological target: aprataxin FHA domain K38A (residues 1-105); assay: ITC
Sequence (chain, as listed by the source K38A): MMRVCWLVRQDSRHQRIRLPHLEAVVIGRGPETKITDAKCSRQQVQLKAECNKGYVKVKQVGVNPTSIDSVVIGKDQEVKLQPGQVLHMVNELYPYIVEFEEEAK

Binder | Kd [µM]
B1 | 1.9
B2 | 6.8
B3 | 12.8
B4 | 1.3
B5 | 46.3
B6 | 3.8

biological target: aprataxin FHA domain (residues 1-105); assay: ITC
Sequence (chain, as listed by the source): as the sequence (chain, as listed by the source K38A) above, with A38K counted along it

Binder | Kd [µM]
B1 | 0.25
B2 | 2.1
B7 | 33
B3 | 1.5
B4 | 0.14
B8 | 0.87
B5 | 17
B6 | 0.5
B9 | 42

Biological target: T1, APLF FHA domain (residues 1-106)
Assay: ITC

Kd [µM] | Binder
0.47 | B1
3.6 | B2
17 | B7
8.1 | B3
0.42 | B4
11 | B8
30 | B5
11 | B6
35 | B9
